B1: PfMCMN-βT (1–256; K233A; R234A; K236A) (domain or fragment, Pyrococcus furiosus, UniProt Q8U3I4 1-256, looked up)
chain: MDREEMIERFANFLREYTDEDGNPVYRGKITDLLTITPKRSVAIDWMHLNSFDSELAHEVIENPEEGISAAEDAIQIVLREDFQREDVGKIHARFYNLPETLMVKDIGAEHINKLIQVEGIVTRVGEIKPFVSVAVFVCKDCGHEMIVPQKPYESLEKVKKCEQCGSKNIELDVNKSSFVNFQSFRIQDRPETLKGGEMPRFIDGILLDDIVDVALPGDRVIVTGILRVVLEAAEATPIFRKILEVNHIEPVSKEI
notes: Minichromosome Maintenance (MCM) protein of Pyrococcus furiosus, N-terminal domain, residues 1-256, with three alanine mutations of the β-turn; Made by site-directed mutagenesis of the PfMCMN-WT SUMO-fusion construct; SUMO removed by Ulp1; also called β-turn triple mutant; pCF076.1

How the values were obtained:
[1] = molecular target: PfMCMN-WT (residues 1–256), amino-terminal domain of Pyrococcus furiosus MCM (Pyrococcus furiosus) (UniProt Q8U3I4); assay: AUC; sedimentation velocity at the highest PfMCMN-WT concentration (350 μM), co-interpreted with sedimentation equilibrium; 20°C, 20 mM HEPES pH 7.6, 200 mM NaCl, 5 mM β-mercaptoethanol
[2] = molecular target: PfMCMN-WT (residues 1–256), amino-terminal domain of Pyrococcus furiosus MCM (Pyrococcus furiosus) (UniProt Q8U3I4); assay: AUC; sedimentation equilibrium of apoproteins, 12-51 μM, 20°C, 20 mM HEPES pH 7.6, 200 mM NaCl, 5 mM β-mercaptoethanol, absorbance 280 nm; reversible monomer-hexamer (WT, hexamer to monomers) or monomer-pentamer (βT, pentamer to monomers) model; the constant is the protein concentration where half of the protein is monomeric
[3] = molecular target: PfMCMN-WT (residues 1–256), amino-terminal domain of Pyrococcus furiosus MCM (Pyrococcus furiosus) (UniProt Q8U3I4); assay: AUC; sedimentation velocity, 20°C, 50 000 rpm, 20 mM HEPES pH 7.6, 200 mM NaCl, 5 mM β-mercaptoethanol, interference and absorbance optics, c(s) distributions; isotherm of signal-average s-values fitted to monomer-hexamer self-association; some WT samples with 40-mer oligo-dT ssDNA (T40)
[4] = molecular target: the molecule itself; assay: AUC; sedimentation equilibrium of apoproteins, 12-51 μM, 20°C, 20 mM HEPES pH 7.6, 200 mM NaCl, 5 mM β-mercaptoethanol, absorbance 280 nm; reversible monomer-hexamer (WT, hexamer to monomers) or monomer-pentamer (βT, pentamer to monomers) model; the constant is the protein concentration where half of the protein is monomeric
[5] = molecular target: the molecule itself; assay: SEC; final size-exclusion chromatography step of purification; elution volume compared with PfMCMN-WT
[6] = molecular target: the molecule itself; assay: AUC; sedimentation velocity, 20°C, 50 000 rpm, 20 mM HEPES pH 7.6, 200 mM NaCl, 5 mM β-mercaptoethanol, interference and absorbance optics, c(s) distributions; isotherm of signal-average s-values fitted to monomer-hexamer self-association; some WT samples with 40-mer oligo-dT ssDNA (T40)

Molecule | stoichiometry N [1] | Kd [2] [µM] | Kd [3] [µM] | percent hexamer at 15 μM with T40 ssDNA [3] [%] | percent hexamer at 38 μM with T40 ssDNA [3] [%] | percent hexamer at 45 μM with T40 ssDNA [3] [%] | percent hexamer at 128 μM with T40 ssDNA [3] [%] | percent of protein in the hexameric fraction at 76 μM [3] [%] | percent of protein in the hexameric fraction at 180 μM [3] [%] | stoichiometry N [3] | Kd [4] [µM] | stoichiometry N [5] | stoichiometry N [6]
PfMCMN-WT (residues 1–256), amino-terminal domain of Pyrococcus furiosus MCM (from UniProt Q8U3I4 1-256) (domain or fragment) | 12 | 60 | 58 | 55 | 72 | 72 | 82 | 37 | 60 | 6 | – | – | –
B1 | – | – | – | – | – | – | – | – | – | – | 8 | ~3 | 5

Reference: paper PMC4627082, “MCM ring hexamerization is a prerequisite for DNA-binding” (Nucleic Acids Research, 2015)
